*1 amine or outer side, *2 acyl side, *3 side chain or, on linkers, in order; H or OH if unused. Bridges are numbered along the chain shown (N, C = ends). Where no end group is shown, it is not given here. tris(bromomethyl)mesitylene = scaffold as named in the source, Cc1c(C[*:1])c(C)c(C[*:3])c(C)c1C[*:2]; THME(IAc3) = trishydroxymethylethane trisiodoacetate, CC(COC(=O)C[*:1])(COC(=O)C[*:2])COC(=O)C[*:3]; TBMB = c1c(C[*:1])cc(C[*:3])cc1C[*:2]
What was measured:
MDM2 (res 2-125) [1] = target: T1, MDM2 (res 2-125) (UniProt Q00987 2-125); experiment: fluorescence anisotropy
T1 construct: range 2-125; Titrant in the fluorescence anisotropy experiments
T1 sequence (Q00987 2-125 limits assumed): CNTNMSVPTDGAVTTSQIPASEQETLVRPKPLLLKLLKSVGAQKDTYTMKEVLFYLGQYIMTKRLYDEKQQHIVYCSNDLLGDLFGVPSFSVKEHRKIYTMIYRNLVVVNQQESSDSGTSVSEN

kallikrein = kallikrein (UniProt P03952 20-638, limits assumed); experiment: cell-based or functional assay
Sequence of kallikrein (P03952 20-638 limits assumed): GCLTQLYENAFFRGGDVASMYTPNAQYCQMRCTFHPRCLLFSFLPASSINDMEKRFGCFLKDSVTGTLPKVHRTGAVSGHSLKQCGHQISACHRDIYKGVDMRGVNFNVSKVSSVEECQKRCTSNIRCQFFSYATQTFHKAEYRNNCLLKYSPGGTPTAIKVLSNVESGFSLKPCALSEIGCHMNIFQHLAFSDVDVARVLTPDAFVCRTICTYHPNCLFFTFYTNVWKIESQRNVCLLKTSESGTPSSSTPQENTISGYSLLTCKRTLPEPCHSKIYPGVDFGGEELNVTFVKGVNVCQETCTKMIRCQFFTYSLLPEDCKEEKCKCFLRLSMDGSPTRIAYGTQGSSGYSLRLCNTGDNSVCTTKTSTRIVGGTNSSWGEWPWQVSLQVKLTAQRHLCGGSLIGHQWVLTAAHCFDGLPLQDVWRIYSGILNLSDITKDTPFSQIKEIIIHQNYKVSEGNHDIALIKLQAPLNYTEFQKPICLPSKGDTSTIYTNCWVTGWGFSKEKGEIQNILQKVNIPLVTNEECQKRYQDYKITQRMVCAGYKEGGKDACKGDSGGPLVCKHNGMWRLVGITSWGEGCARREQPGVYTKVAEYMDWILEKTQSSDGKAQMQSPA

MDM2 (res 2-125) [2] = target: T1, MDM2 (res 2-125); experiment: fluorescence anisotropy titration, excitation 295 nm, 23 C, PBS, 5 mM DTT
Protocol: (§1) Titration experiments were run on a Horiba Jobin Yvon fluorimeter equipped with the Hamilton Microlab titrator controlled by laboratory software. The λₑₓ and λₑₘ used were 295 nm and 350 nm, respectively. The slit widths for excitation and emission were 5 nm and 15 nm and the integration time 1 Os was used for each measurement. […] The experiments were performed at 23° C. in PBS, 5 mM DTT. […] Titration data were analyzed with a standard 1:1 binding model by using the quadratic solution to the equilibrium Kd=[A][B]/[AB]. […] The fitting equation contained an extra term to account for linear drift.

MDM2 (res 2-125) [3] = target: T1, MDM2 (res 2-125); experiment: fluorescence anisotropy titration (intrinsic Trp fluorescence), 23 C, PBS, 5 mM DTT
Protocol: as §1

MDM2 (res 2-125) [4] = target: T1, MDM2 (res 2-125); experiment: fluorescence anisotropy titration, excitation 280 nm, 23 C, PBS, 5 mM DTT

B1: PEP48-3s1 conjugated with THME(IAc3), HPLC peak / stereoisomer with affinity 1600 nM (peptide)
peptide: SDDCVRFGWTCPTVMCG
modifications: linker 4-11-16 via THME(IAc3); also: one of two stereoisomers (HPLC peaks), not assigned
notes: The other of two HPLC peaks of identical mass (expected stereoisomers); also called PEP48-3s1-THME(IAc3)
Question: For B1, which Kd (MDM2 (res 2-125) [1]) is on record?
Answer: 1.6 µM

Question: How did the “IC50 of inhibition of kallikrein (Z-Phe-Arg-AMC substrate, fluorescence)” value (kallikrein) turn out when ACSDRFRNCPADEALCG (linker 2-9-16 via TBMB) [PK15-TBMB] was run?
Answer: 0.013 µM

B2: PEP48-3s1 conjugate (TBMB) (peptide)
peptide: SDDCVRFGWTCPTVMCG
modifications: linker 4-11-16 via TBMB
notes: PEP48 derivative with the second loop re-selected
Question: How did the Kd (MDM2 (res 2-125) [1]) turn out when B2 was run?
Answer: 0.027 to 0.1 µM

B3: oxidized PK15-TBMB (sulphoxides, +3 oxygen atoms) (peptide)
peptide: ACSDRFRNCPADEALCG
modifications: linker 2-9-16 via TBMB; also: thioether links to TBMB oxidised to sulphoxides (stereoisomer mixture)
Question: For B3, which “IC50 of inhibition of kallikrein (Z-Phe-Arg-AMC substrate, fluorescence)” value (kallikrein) is on record?
Answer: ~2.4 µM

Question: ACSDRFRNCPADEALCG (linker 2-9-16 via tris(bromomethyl)mesitylene) [PK15 conjugated with tris(bromomethyl)mesitylene] was tested. Which “IC50 of inhibition of kallikrein (Z-Phe-Arg-AMC substrate, fluorescence)” value (kallikrein) did it give?
Answer: 0.15 µM

Question: For ACSDRFRNMPADEALCG (both cysteines and the single methionine conjugated to TBMB) [PK15 with central cysteine altered to methionine, TBMB conjugate, second of two HPLC products], which “IC50 of inhibition of kallikrein activity” value (kallikrein) is on record?
Answer: > 10 µM

Question: With ACSDRFRNCPADEALCG (linker 2-9-16 via TBMB; also: thioether links to TBMB oxidised to sulphones) [oxidized PK15-TBMB (sulphone)] as the binder, how does the “IC50 of inhibition of kallikrein (Z-Phe-Arg-AMC substrate, fluorescence)” value (kallikrein) read?
Answer: 1.3 µM

B4: PEP48-3s1 conjugated with THME(IAc3), HPLC peak / stereoisomer with affinity 640 nM (peptide)
peptide: SDDCVRFGWTCPTVMCG
modifications: linker 4-11-16 via THME(IAc3); also: one of two stereoisomers (HPLC peaks), not assigned
notes: One of two HPLC peaks of identical mass (expected stereoisomers); also called PEP48-3s1-THME(IAc3)
Question: How did the Kd (MDM2 (res 2-125) [1]) turn out when B4 was run?
Answer: 0.64 µM

B5: PEP10 synthetic peptide conjugated with TBMB (peptide)
peptide: H-SCELWNPKCRLSPFECKG-OH
modifications: linker 2-9-16 via TBMB
notes: The anisotropy paragraph says only 'peptides 10, 48'; also called peptide 10
Question: B5 was tested. Which Kd (MDM2 (res 2-125) [2]) did it give?
Answer: 0.267 µM

Question: What about the Kd (MDM2 (res 2-125) [3]) of the same binder?
Answer: 0.25 to 0.75 µM

B6: PEP48 synthetic peptide conjugated with TBMB (peptide)
peptide: H-SCVRFGWTCDNSWHGCKG-OH
modifications: linker 2-9-16 via TBMB
notes: The anisotropy paragraph says only 'peptides 10, 48'; also called peptide 48
Question: B6 was tested. Which Kd (MDM2 (res 2-125) [2]) did it give?
Answer: 0.567 µM

Question: And the Kd (MDM2 (res 2-125) [4])?
Answer: 0.76 µM

Question: What about the Kd (MDM2 (res 2-125) [3]) of the same binder?
Answer: 0.25 to 0.75 µM

Question: With ACSDRFRNCPADEALCG (linker 2-9-16 via tris(bromoethyl)mesitylene) [PK15 conjugated with tris(bromoethyl)mesitylene] as the binder, how does the “IC50 of inhibition of kallikrein (Z-Phe-Arg-AMC substrate, fluorescence)” value (kallikrein) read?
Answer: ~0.4 µM

Question: How did the “IC50 of inhibition of kallikrein activity” value (kallikrein) turn out when ACSDRFRNMPADEALCG (both cysteines and the single methionine conjugated to TBMB) [PK15 with central cysteine altered to methionine, TBMB conjugate, first of two HPLC products] was run?
Answer: > 10 µM
